Results published in article PMC7589982.

Biological target: HPV16 E6 oncoprotein, full-length, LexA bait (pGilda/LexA) (human papillomavirus 16) (UniProt P03126)
Assay: two-hybrid; full-length HPV16 E6 in pGilda/LexA as bait; growth on medium lacking leucine, blue colonies, beta-galactosidase activity (unit) with ONPG

Sequence of UniProt P03126 (P03126 whole entry): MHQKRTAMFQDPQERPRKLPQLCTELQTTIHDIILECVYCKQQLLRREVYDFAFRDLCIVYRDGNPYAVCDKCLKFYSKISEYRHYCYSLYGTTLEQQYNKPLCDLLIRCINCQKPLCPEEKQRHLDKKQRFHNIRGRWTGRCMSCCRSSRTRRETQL

For “IRF-1 (interferon regulatory factor-1), yeast two-hybrid prey (natural protein)”, the β-galactosidase activity was 88.2 unit.
